Results published in article PMC10397247.

Assays:
APC4100-AA = molecular target: T1, APC4100-AA; test: two-hybrid library CCmax; conditions: mean of both orientations;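 note: natural log of median RNA to DNA barcode read ratio; higher means stronger binding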
T1 chain: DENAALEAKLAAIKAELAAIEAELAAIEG

APC7524-AA = molecular target: T2, APC7524-AA; test: two-hybrid library CCmax; conditions: mean of both orientations;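 note: natural log of median RNA to DNA barcode read ratio; higher means stronger binding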
T2 chain: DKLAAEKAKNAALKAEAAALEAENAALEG

APC5531-AA = molecular target: T3, APC5531-AA; test: two-hybrid library CCmax;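 note: natural log of median RNA to DNA barcode read ratio; higher means stronger binding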
T3 chain: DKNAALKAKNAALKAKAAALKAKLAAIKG

APC9291-AA = molecular target: T4, APC9291-AA; test: two-hybrid library CCmax; conditions: mean of both orientations;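 note: natural log of median RNA to DNA barcode read ratio; higher means stronger binding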
T4 chain: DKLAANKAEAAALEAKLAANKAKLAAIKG

APC542-AA = molecular target: T5, APC542-AA; test: two-hybrid library CCmax;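 note: natural log of median RNA to DNA barcode read ratio; higher means stronger binding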
T5 chain: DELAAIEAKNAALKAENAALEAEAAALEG

APC9806-AA = molecular target: T6, APC9806-AA; test: two-hybrid library CCmax; conditions: mean of both orientations;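 note: natural log of median RNA to DNA barcode read ratio; higher means stronger binding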
T6 chain: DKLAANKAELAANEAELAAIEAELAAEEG

APC2474-AA = molecular target: T7, APC2474-AA; test: two-hybrid library CCmax
T7 chain: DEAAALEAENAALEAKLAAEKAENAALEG

APC2981-AA = molecular target: T8, APC2981-AA; test: two-hybrid library CCmax; conditions: mean of both orientations
T8 chain: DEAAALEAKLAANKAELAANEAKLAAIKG

APC2556-AA = molecular target: T9, APC2556-AA; test: two-hybrid library CCmax; conditions: mean of both orientations
T9 chain: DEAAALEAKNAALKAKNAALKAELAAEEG

APC2257-AA = molecular target: T10, APC2257-AA; test: two-hybrid library CCmax; conditions: mean of both orientations
T10 chain: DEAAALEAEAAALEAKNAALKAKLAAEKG

APC9141-AA = molecular target: T11, APC9141-AA; test: two-hybrid library CCmax; conditions: mean of both orientations
T11 chain: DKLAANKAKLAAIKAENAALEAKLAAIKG

APC3265-AA = molecular target: T12, APC3265-AA; test: two-hybrid library CCmax; conditions: mean of both orientations
T12 chain: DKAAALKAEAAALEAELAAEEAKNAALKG

APC4336-AA = molecular target: T13, APC4336-AA; test: two-hybrid library CCmax; conditions: mean of both orientations
T13 chain: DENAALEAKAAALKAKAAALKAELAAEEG

APC6088-AA = molecular target: T14, APC6088-AA; test: two-hybrid library CCmax; conditions: mean of both orientations
T14 chain: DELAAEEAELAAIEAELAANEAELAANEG

APC3881-AA = molecular target: T15, APC3881-AA; test: two-hybrid library CCmax; conditions: mean of both orientations
T15 chain: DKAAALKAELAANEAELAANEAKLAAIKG

APC8516-AA = molecular target: T16, APC8516-AA; test: two-hybrid library CCmax
T16 chain: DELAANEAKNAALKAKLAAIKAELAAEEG

APC2724-AA = molecular target: T17, APC2724-AA; test: two-hybrid library CCmax; conditions: mean of both orientations
T17 chain: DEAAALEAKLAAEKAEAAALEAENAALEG

APC3323-AA = molecular target: T18, APC3323-AA; test: two-hybrid library CCmax; conditions: mean of both orientations
T18 chain: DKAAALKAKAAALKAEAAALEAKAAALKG

APC2811-AA = molecular target: T19, APC2811-AA; test: two-hybrid library CCmax; conditions: mean of both orientations
T19 chain: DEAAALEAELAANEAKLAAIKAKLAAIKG

APC9182-AA = molecular target: T20, APC9182-AA; test: two-hybrid library CCmax; conditions: mean of both orientations
T20 chain: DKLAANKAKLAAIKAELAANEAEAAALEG

APC3354-AA = molecular target: T21, APC3354-AA; test: two-hybrid library CCmax; conditions: mean of both orientations
T21 chain: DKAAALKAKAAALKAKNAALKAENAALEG

APC2543-AA = molecular target: T22, APC2543-AA; test: two-hybrid library CCmax; conditions: mean of both orientations
T22 chain: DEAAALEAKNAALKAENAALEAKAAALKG

APC5009-AA = molecular target: T23, APC5009-AA; test: two-hybrid library CCmax; conditions: mean of both orientations
T23 chain: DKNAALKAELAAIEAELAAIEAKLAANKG

APC8401-AA = molecular target: T24, APC8401-AA; test: two-hybrid library CCmax; conditions: mean of both orientations
T24 chain: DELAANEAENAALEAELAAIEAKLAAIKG

APC2375-AA = molecular target: T25, APC2375-AA; test: two-hybrid library CCmax; conditions: mean of both orientations
T25 chain: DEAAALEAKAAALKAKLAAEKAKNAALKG

APC222-AA = molecular target: T26, APC222-AA; test: two-hybrid library CCmax
T26 chain: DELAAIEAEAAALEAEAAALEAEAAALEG

4H342-bN = molecular target: T27, 4H342-bN; test: two-hybrid library CCNG1
T27 chain: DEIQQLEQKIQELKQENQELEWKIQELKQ

4H496-bN = molecular target: T28, 4H496-bN; test: two-hybrid library CCNG1
T28 chain: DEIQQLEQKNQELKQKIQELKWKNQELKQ

4H3632-bN = molecular target: T29, 4H3632-bN; test: two-hybrid library CCNG1
T29 chain: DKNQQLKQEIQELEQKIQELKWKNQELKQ

4H3070-bN = molecular target: T30, 4H3070-bN; test: two-hybrid library CCNG1; conditions: mean of both orientations
T30 chain: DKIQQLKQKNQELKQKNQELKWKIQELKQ

4H1360-AA = molecular target: T31, 4H1360-AA; test: two-hybrid library CCmax
T31 chain: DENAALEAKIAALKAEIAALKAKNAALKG

4H249-AA = molecular target: T32, 4H249-AA; test: two-hybrid library CCmax; conditions: mean of both orientations
T32 chain: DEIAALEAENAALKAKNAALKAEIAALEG

4H2728-AA = molecular target: T33, 4H2728-AA; test: two-hybrid library CCmax; conditions: mean of both orientations
T33 chain: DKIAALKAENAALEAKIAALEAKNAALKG

4H483-AA = molecular target: T34, 4H483-AA; test: two-hybrid library CCmax; conditions: mean of both orientations
T34 chain: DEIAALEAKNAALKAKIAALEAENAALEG

4H3782-AA = molecular target: T35, 4H3782-AA; test: two-hybrid library CCmax; conditions: mean of both orientations
T35 chain: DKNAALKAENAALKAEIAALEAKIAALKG

4H341-AA = molecular target: T36, 4H341-AA; test: two-hybrid library CCmax; conditions: mean of both orientations
T36 chain: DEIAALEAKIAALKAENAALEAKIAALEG

4H2621-AA = molecular target: T37, 4H2621-AA; test: two-hybrid library CCmax; conditions: mean of both orientations
T37 chain: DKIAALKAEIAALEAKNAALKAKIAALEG

4H1454-AA = molecular target: T38, 4H1454-AA; test: two-hybrid library CCmax; conditions: mean of both orientations
T38 chain: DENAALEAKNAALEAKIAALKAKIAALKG

4H446-AA = molecular target: T39, 4H446-AA; test: two-hybrid library CCmax; conditions: mean of both orientations
T39 chain: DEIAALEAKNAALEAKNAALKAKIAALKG

4H464-AA = molecular target: T40, 4H464-AA; test: two-hybrid library CCmax; conditions: mean of both orientations
T40 chain: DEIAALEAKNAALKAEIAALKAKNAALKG

4H2774-AA = molecular target: T41, 4H2774-AA; test: two-hybrid library CCmax; conditions: mean of both orientations
T41 chain: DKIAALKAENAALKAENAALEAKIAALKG

4H2699-AA = molecular target: T42, 4H2699-AA; test: two-hybrid library CCmax; conditions: mean of both orientations
T42 chain: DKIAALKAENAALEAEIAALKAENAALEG

4H3049-AA = molecular target: T43, 4H3049-AA; test: two-hybrid library CCmax; conditions: mean of both orientations
T43 chain: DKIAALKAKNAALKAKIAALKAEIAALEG

4H3969-AA = molecular target: T44, 4H3969-AA; test: two-hybrid library CCmax; conditions: mean of both orientations
T44 chain: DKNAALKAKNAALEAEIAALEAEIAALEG

4H3414-AA = molecular target: T45, 4H3414-AA; test: two-hybrid library CCmax; conditions: mean of both orientations
T45 chain: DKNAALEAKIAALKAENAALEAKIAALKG

4H2961-AA = molecular target: T46, 4H2961-AA; test: two-hybrid library CCmax; conditions: mean of both orientations
T46 chain: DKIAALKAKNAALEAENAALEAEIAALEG

4H1913-AA = molecular target: T47, 4H1913-AA; test: two-hybrid library CCmax; conditions: mean of both orientations
T47 chain: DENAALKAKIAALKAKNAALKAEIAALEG

4H1558-AA = molecular target: T48, 4H1558-AA; test: two-hybrid library CCmax; conditions: mean of both orientations
T48 chain: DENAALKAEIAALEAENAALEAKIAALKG

4H2903-AA = molecular target: T49, 4H2903-AA; test: two-hybrid library CCmax; conditions: mean of both orientations
T49 chain: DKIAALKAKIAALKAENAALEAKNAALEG

4H3595-AA = molecular target: T50, 4H3595-AA; test: two-hybrid library CCmax; conditions: mean of both orientations
T50 chain: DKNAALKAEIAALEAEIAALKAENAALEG

4H63-AA = molecular target: T51, 4H63-AA; test: two-hybrid library CCmax; conditions: mean of both orientations
T51 chain: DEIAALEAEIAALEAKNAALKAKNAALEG

4H3939-AA = molecular target: T52, 4H3939-AA; test: two-hybrid library CCmax; conditions: mean of both orientations
T52 chain: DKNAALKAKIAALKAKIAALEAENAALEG

4H3629-AA = molecular target: T53, 4H3629-AA; test: two-hybrid library CCmax; conditions: mean of both orientations
T53 chain: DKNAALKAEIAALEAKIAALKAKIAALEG

4H380-AA = molecular target: T54, 4H380-AA; test: two-hybrid library CCmax; conditions: mean of both orientations
T54 chain: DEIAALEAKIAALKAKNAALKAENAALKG

4H3129-AA = molecular target: T55, 4H3129-AA; test: two-hybrid library CCmax; conditions: mean of both orientations
T55 chain: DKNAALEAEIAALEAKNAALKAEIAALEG

4H2580-AA = molecular target: T56, 4H2580-AA; test: two-hybrid library CCmax; conditions: mean of both orientations
T56 chain: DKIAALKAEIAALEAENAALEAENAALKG

B1: APC222-AA (peptide)
chain: DELAAIEAEAAALEAEAAALEAEAAALEG
- interaction score (APC4100-AA): -1.75
- interaction score (APC7524-AA): -2.39
- interaction score (APC5531-AA): -1.91
- interaction score (APC9291-AA): -1.82
- interaction score (APC542-AA): -1.23
- interaction score (APC9806-AA): -1.68
- interaction score (APC2474-AA): -1.83
- interaction score (APC2981-AA): -1.93
- interaction score (APC2556-AA): -2.32
- interaction score (APC2257-AA): -1.71
- interaction score (APC9141-AA): -1.74
- interaction score (APC3265-AA): -1.62
- interaction score (APC4336-AA): -1.82
- interaction score (APC6088-AA): -1.62
- interaction score (APC3881-AA): -1.61
- interaction score (APC8516-AA): -1.79
- interaction score (APC2724-AA): -2.15
- interaction score (APC3323-AA): -0.292
- interaction score (APC2811-AA): -1.59
- interaction score (APC9182-AA): -1.69
- interaction score (APC3354-AA): -1.41
- interaction score (APC2543-AA): -1.8
- interaction score (APC5009-AA): -2.08
- interaction score (APC8401-AA): -1.94
- interaction score (APC2375-AA): -1.53
- interaction score (APC222-AA): -2.62

B2: 4H3070-bN (peptide)
chain: DKIQQLKQKNQELKQKNQELKWKIQELKQ
- interaction score (4H342-bN): 0.751
- interaction score (4H496-bN): -1.31
- interaction score (4H3632-bN): -1.38
- interaction score (4H3070-bN): -1.41

B3: 4H1360-AA (peptide)
chain: DENAALEAKIAALKAEIAALKAKNAALKG
- interaction score (4H1360-AA): -0.121
- interaction score (4H249-AA): -1.76
- interaction score (4H2728-AA): -1.69
- interaction score (4H483-AA): -1.58
- interaction score (4H3782-AA): -0.0635
- interaction score (4H341-AA): 0.0278
- interaction score (4H2621-AA): -1.11
- interaction score (4H1454-AA): -1.08
- interaction score (4H446-AA): -1.69
- interaction score (4H464-AA): -1.69
- interaction score (4H2774-AA): -1.2
- interaction score (4H2699-AA): 0.416
- interaction score (4H3049-AA): -0.108
- interaction score (4H3969-AA): 0.163
- interaction score (4H3414-AA): -1.25
- interaction score (4H2961-AA): -1.52
- interaction score (4H1913-AA): -1.61
- interaction score (4H1558-AA): -0.811
- interaction score (4H2903-AA): 0.0597
- interaction score (4H3595-AA): 2
- interaction score (4H63-AA): 0.265
- interaction score (4H3939-AA): 0.656
- interaction score (4H3629-AA): 0.958
- interaction score (4H380-AA): -1.11
- interaction score (4H3129-AA): -1.34
- interaction score (4H2580-AA): 1.2
